Data from paper PMC3626232 (The Journal of biological chemistry, 2000).

Columns and labels:
SEC = target: the molecule itself; assay: SEC
XMcm(2+4+6+7) tetramer = XMcm(2+4+6+7) tetramer (Xenopus (endogenous in Xenopus egg …, UniProt P55861 1-886; P30664 1-863; Q5FWY4 1-821; Q91876 1-720); assay: SEC
Chain of XMcm(2+4+6+7) tetramer (Xenopus (P30664 whole entry, chain 2 of 2): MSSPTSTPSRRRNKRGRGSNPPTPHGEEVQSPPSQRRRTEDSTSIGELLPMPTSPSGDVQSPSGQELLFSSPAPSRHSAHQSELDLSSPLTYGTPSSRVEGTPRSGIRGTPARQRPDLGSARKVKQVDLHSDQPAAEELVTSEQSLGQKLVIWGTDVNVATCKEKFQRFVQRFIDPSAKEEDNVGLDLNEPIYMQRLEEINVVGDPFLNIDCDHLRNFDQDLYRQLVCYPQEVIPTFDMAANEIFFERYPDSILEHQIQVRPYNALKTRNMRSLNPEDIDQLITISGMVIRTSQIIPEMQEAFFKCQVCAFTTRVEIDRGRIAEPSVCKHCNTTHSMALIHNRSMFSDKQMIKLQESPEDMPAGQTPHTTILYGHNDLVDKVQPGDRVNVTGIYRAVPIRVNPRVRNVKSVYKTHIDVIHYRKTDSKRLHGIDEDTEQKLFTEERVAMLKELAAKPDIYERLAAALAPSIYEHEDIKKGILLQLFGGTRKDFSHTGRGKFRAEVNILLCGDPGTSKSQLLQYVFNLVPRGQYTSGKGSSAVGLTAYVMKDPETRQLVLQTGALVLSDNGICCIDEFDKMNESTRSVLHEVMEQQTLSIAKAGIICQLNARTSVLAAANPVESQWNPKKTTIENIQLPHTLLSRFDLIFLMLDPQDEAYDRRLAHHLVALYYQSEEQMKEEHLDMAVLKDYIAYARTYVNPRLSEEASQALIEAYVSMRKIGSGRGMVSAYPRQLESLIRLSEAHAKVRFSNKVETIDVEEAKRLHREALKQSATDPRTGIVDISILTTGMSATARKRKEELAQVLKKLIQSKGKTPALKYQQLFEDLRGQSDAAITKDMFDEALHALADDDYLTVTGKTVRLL
Chain of XMcm(2+4+6+7) tetramer (Xenopus (Q5FWY4 whole entry, chain 3 of 2): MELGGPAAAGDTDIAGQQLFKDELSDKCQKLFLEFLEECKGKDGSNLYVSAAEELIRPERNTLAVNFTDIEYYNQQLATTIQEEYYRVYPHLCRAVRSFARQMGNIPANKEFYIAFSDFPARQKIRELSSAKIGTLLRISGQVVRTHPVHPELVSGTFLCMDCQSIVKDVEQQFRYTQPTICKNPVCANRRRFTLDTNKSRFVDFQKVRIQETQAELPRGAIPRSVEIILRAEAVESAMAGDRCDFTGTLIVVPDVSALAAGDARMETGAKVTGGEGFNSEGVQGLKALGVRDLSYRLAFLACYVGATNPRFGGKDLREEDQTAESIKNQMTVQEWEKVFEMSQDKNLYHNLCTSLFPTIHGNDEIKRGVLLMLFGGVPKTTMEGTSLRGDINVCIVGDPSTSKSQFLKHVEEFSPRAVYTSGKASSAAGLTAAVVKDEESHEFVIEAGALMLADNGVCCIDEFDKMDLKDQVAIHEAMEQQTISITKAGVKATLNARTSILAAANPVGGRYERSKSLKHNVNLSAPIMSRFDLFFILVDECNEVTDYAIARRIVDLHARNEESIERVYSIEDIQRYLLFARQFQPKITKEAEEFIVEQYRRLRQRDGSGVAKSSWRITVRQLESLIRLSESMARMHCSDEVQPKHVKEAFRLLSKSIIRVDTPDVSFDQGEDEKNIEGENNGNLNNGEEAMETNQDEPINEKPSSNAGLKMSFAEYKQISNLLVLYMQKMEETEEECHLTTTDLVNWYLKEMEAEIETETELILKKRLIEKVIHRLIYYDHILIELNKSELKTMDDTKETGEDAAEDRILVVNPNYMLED

Binder | stoichiometry N (SEC) | binding result (XMcm(2+4+6+7) tetramer)
XMcm2 (natural protein, UniProt P55861 1-886, looked up) MADSSESFNIATSPRAGSRRDALTSSPGRDLPPFEDESEGMFGDGVVPEEEEDGEELIGDAMERDYRPISELDRYEVEGLDDEEDVEDLTASQREAAEQSMRMRDREMGRELGRMRRGLLYDSDEEEEDRPARKRRMAERAAEGAPEEDEEMIESIENLEDMKGHTVREWVSMAATRLEIYHRFKNFLRTHVDEHGHNVFKEKISDMCKENKESLPVNYEDLAAREHVLAYFLPEAPAEMLKIFDEAAKEVVLVMYPKYDRIAREIHVRISHLPLVEELRSLRQLHLNQLIRTSGVVTCCTGVLPQLSMVKYNCNKCNFILGPFFQSQNQEVRPGSCPECQSFGPFEINMEETVYQNYQRITIQESPGKVAAGRLPRSKDAILLADLVDSCKPGDEIELTGIYHNNYDGSLNTANGFPVFATVILANHITKKDDKVAVGELTDEDVKAIVALSKDERIGERIFASIAPSIYGHEDIKRGLALALFGGEAKNPGGKHKVRGDINVLLCGDPGTAKSQFLKYVEKVASRAVFTTGQGASAVGLTAYVQRHPVTKEWTLEAGALVLADRGVCLIDEFDKMNDQDRTSIHEAMEQQSISISKAGIVTSLQARCTVIAASNPIGGRYDPSLTFSENVDLTEPIVSRFDILCVVRDTVDPVQDEMLARFVVSSHIKHHPSSKDIANGDAAEFALPNTFGVEALPQEVLKKYIMYAKEKIRPKLNQMDQDKVAKMYSDLRKESMATGSIPITVRHIESMIRMAEAHARMHLRDYVVEDDVNMAIRVMLESFIDTQKFSVMRSMRKTFARYLAFRRDNNELLLFVLKQLIAEQVTYQRNRYGAQQDTIEVPEKDLVDKARQINIHNLSAFYDSDLFKMNKFTHDVKKKLIIQQF | 2 | –
XMcm(3+7) hetero-dimer (complex) chain 1: MDYGGGFEDHELREAQREYLDFLDDDQDQGLYHGKVRDMIGSNEHRLIVNLNDVRRKNDKRANLMLNDAFAETIAFQRALKDLVASIDATYAKQFEEFSVGFEGSFGSKHVSPRTLTASLLGSLVCVEGIVTKCSLVRPKVMRSVHYCPATKKTLERKYSDLTSLEAFPSSSIYPTKDEENNPLETEYGLSTYKDHQTLSIQEMPEKAPAGQLPRSVDIIADDDLVDKCKPGDRVQIVGIYRCLPSKQGGFTSGTFRTILLANNIKLMSKEIAPTFSADDVAKIKKFCKAHSKDIFEHLSKSLAPSIHGHEYIKKAILCMLLGGNEKVLENGTRIRGDINVLLIGDPSVAKSQLLRYVLHTAPRAIPTTGRGSSGVGLTAAVTTDQETGERRLEAGAMVLADRGVVCIDEFDKMSDMDRTAIHEVMEQGRVTIAKAGIQARLNARCSVLAAANPVYGRYDQYRTPMENIGLQDSLLSRFDLLFIVLDKMDADNDQEIADHVLRMHRYRTPGEQDGYALPLGCSVEIFATDDPNASDVTDQELQIYEKHDNLLHGPRKNKSKIVSMQFIRKYIHVAKLIKPVLTSEAADYISQEYAKIRNHDQINNDSARTMPVTARALETMIRLSTAHAKVRMSKTIERQDAETALELVQFAYFKKVLAKEKKKTDKDLHDENLSQDTLSQESVRKSSRRAGKIADSQDDSMDPYSFSEQDSSLNENLSQSLRPQRKKAESQDGKRSLSQNRTKEFKAALLKAFKSSRSQSVAVSQLLELINKGNPEPFERSEVKEALDNMQNDNQVMVSEDVVFLI chain 2: MPRDYQTEKEKCKTFLQEFYKDDEIGKKHFKYGVQLANIAHREQVALYIDLDDLAEEDPELVDAICENTRRYTNLFADAVQELLPQYKEREVVHKDALDVYIEHRLMMEQRGRDPNEMRDSQNQYPPELMRRFELYFKAPSSSKARVVRDVKADSIGKLVNIRGIVTRVTEVKPMMVVATYTCDQCGAETYQPIQSPTFMPLIMCPSRECQTNRSGGRLYLQTRGSKFIKFQELKIQEHSDQVPVGNIPRCMSVYVRGENTRLAQPGDHVGITGVFLPMLRTGFRQVVQGLLSETYLECHRLVKMNKSEDDELGTEELSEEELRQITEEDFYEKLAASIAPEIYGHEDVKKALLLLLVGGVDNSPRGMKIRGNINICLMGDPGVAKSQLLSYIDRLAPRSQYTTGRGSSGVGLTAAVMKDPVTGEMTLEGGALVLADQGVCCIDEFDKMMDTDRTAIHEVMEQQTISIAKAGIMTTLNARCSILAAANPAYGRYNPKKTVEQNIQLPAALLSRFDVLWLIQDKPDRDNDLRLAQHITYVHQHSKQPPSQFQPLDMKLMRRYITMCKRKQPAIPEALADYLTAAYVEMRKEARTNKDMTFTSARTLLSVLRLSTALARLRLEDVVEKEDVNEAMRLMEMSKDSLLGDKGHTSRTQRPADVIFSTIREMVPEKGARSVKYSEAEQRCVSKGFTPAQFEAALEEYEELNVWLVNQARTKITFV | – | binds
